Experimental data as given in patent US20240076389A1.

molecular target: human AXL expressed on the cell surface of tumor cell lines (human) (UniProt P30530); assay: cell-based or functional assay
Sequence (P30530 26-894): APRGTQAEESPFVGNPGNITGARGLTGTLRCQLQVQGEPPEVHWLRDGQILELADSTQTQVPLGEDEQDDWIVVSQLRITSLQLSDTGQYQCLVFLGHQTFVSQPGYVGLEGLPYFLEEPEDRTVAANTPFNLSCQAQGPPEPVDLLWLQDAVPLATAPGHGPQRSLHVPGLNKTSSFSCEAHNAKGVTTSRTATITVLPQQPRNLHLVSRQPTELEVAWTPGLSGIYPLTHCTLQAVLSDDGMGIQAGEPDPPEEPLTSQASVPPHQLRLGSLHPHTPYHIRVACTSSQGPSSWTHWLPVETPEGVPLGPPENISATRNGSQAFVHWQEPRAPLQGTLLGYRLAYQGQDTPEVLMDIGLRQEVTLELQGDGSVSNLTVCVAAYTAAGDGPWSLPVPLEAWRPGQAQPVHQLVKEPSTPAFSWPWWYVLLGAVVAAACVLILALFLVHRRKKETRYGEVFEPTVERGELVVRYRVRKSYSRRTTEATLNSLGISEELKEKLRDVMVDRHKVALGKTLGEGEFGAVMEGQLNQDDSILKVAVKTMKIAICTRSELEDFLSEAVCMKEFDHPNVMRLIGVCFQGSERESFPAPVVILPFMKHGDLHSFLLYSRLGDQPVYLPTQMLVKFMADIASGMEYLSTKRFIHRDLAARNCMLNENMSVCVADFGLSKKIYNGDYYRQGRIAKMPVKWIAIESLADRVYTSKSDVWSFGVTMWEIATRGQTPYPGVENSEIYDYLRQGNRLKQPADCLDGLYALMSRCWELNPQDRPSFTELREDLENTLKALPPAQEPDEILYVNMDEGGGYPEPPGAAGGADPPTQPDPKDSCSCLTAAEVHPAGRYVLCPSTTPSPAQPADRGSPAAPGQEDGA

Row | IC50 of growth inhibition (CellTiterGlo, 5 days) of NCI-H292 cells, -Gas6 [nM] | IC50 of growth inhibition of NCI-H292 cells, +Gas6 (2 µg/mL) [nM] | Binder
1 | 0.034 | 0.24 | hFc-sdAb008-DM1 (Fc fusion, not shown: a dimerising Fc or GST, DM1 conjugate (SMCC linker); sites not given) QVKLEESGGGLVQAGGSLRLSCAASGSSGMINTMGWYRQAPGKQRELVARRSTGGTTNYADSVKGRFTISRDDANNTVYLQMNSLKPEDTAVYYCAIIWRTSDLTGRFNTWGQGTQVTVSS
2 | 6.66 | 3.78 | hFc-sdAb005-DM1 (Fc fusion, not shown: a dimerising Fc or GST, DM1 conjugate (SMCC linker); sites not given) QVKLEESGGGLAQAGGSLRLSCAASGSISSINTIGWFRQAPGKQRELVAASDSGANRNYADSVKGRFTISRDNAKNTVYLQMNNLKPEDTAIYYCRAWGTGTISTMYWGQGTQVTVSS

Further lines, the binder ahead of its results:

Row | Binder | IC50 of growth inhibition (CellTiterGlo, 5 days) of NCI-H292 cells, -Gas6 [nM] | IC50 of growth inhibition of NCI-H292 cells, +Gas6 (2 µg/mL) [nM]
3 | hFc-sdAb001-DM1 (Fc fusion, not shown: a dimerising Fc or GST, DM1 conjugate (SMCC linker); sites not given) QVKLEESGGGLVQAGGSLRLSCTASASISSFDIMGWYRQAPGKQRELVAAITTLDIANYRDSVKGRFTISRDNAKNTVYLQMDSLKPEDTARYHCAAFQSDQNYWGQGTQVTVSS | 0.887 | –
4 | hFc-sdAb006-DM1 (Fc fusion, not shown: a dimerising Fc or GST, DM1 conjugate (SMCC linker); sites not given) QVKLEESGGGLVQAGASLRLSCVASESIFGFNTMGWYRQAPGNERELVASISNSKRTMYADSVKGRFTISRDNAKNTVNLQMNNLKPEDTAVYYCRAWGIITSATVYWGQGTQVTVSS | 2.71 | –

molecular target: huAXL-ECD displayed on yeast (human) (UniProt P30530); assay: yeast surface display ELISA, non-denatured yeast, goat anti-human F(ab')2-HRP
Sequence (P30530 26-449, form in doubt): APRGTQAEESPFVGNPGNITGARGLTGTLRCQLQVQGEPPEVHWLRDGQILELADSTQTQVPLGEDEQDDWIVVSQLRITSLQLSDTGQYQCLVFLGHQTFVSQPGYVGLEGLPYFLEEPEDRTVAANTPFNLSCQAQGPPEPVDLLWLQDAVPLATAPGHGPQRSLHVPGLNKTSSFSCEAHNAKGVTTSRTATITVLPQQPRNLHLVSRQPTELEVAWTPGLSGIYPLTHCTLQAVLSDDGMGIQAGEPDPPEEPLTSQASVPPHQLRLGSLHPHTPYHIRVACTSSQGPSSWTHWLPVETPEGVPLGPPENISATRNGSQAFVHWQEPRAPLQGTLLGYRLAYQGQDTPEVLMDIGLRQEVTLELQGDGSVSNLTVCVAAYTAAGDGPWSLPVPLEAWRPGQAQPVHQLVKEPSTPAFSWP

Row | yeast ELISA signal normalized to myc expression level | Binder
5 | 1.03 | NRC-sdAb001-Fc (VHH-human IgG1 Fc fusion) (Fc fusion, not shown: a dimerising Fc or GST) QVKLEESGGGLVQAGGSLRLSCTASASISSFDIMGWYRQAPGKQRELVAAITTLDIANYRDSVKGRFTISRDNAKNTVYLQMDSLKPEDTARYHCAAFQSDQNYWGQGTQVTVSS
6 | 0.659 | NRC-sdAb003-Fc (VHH-human IgG1 Fc fusion) (Fc fusion, not shown: a dimerising Fc or GST) QVQLVESGGGLVQAGGSLRLSCAASGVTLDYTAIGWFRQAPGKERELVAAITSGGNTDYAESAKGRFRISRDNSKNTIYLQMNSLKPEDTGVYYCAARRGGARGEYDYWDQGTQVTVSS
7 | 0.882 | NRC-sdAb002-Fc (VHH-human IgG1 Fc fusion) (Fc fusion, not shown: a dimerising Fc or GST) QVQLVDSGGGLVQAGGSLRLSCATSTRTVSSAVMAWFRQAPEKVRDFVGFITNSGNILYDDSVKGRFTISRDNAQNTVYLQMNSLKPEDTAVYYCAAKWSFSSGYGDLRRAAMYDYWGQGTQVTVSS
8 | 1.39 | hFC-F107-10G1 (antibody, human IgG1, kappa, V domains shown) VH: EVNLVESGGGVVKPGASLKLSCEASGFTFSNYGMSWVRQTSDKRLEWVASISGGGGRTYYLDNVKGRFIISRENAKNTLYLQMSSLKSEDTALFYCARGARASYFAMDYWGQGSSVTVSS VL: VIVMTQSHKFMSTSVGDRVSITCKASQDVTTAVAWYQQKPGQSPKLLIYWASTRHTGVPDRFTGSGSGTDYSLTISNVQTEDLAFYYCQQHFTTPLTFGAGTKLELKR
